This passage reports abundance fitness results from the Human Domainome abundance scans (Beltran et al. 2025).

± gives the uncertainty stated by the source.

B1: Proto-oncogene vav, residues 782 to 842; numbered along this chain, P15498 (parent)
chain: KYFGTAKARYDFCARDRSELSLKEGDIIKILNKKGQQGWWRGEIYGRVGWFPANYVEEDYS

This data set covers variants of B1. Kind of data set: abundance fitness (aPCA) (normalised: wild type 0, dead -1); higher = more abundant; growth selection in yeast, the domain comes from the species named. The following applies: Homo sapiens.
As to KYFGTAKARYDFCARDRTELSLKEGDIIKILNKKGQQGWWRGEIYGRVGWFPANYVEEDYS [S18T], the abundance fitness was -0.068 ± 0.1.

Turning to KYFGTAKARYDFCARDRGELSLKEGDIIKILNKKGQQGWWRGEIYGRVGWFPANYVEEDYS [S18G], the abundance fitness was -0.194 ± 0.081.

Take KYFGTAKARYDFCARDRAELSLKEGDIIKILNKKGQQGWWRGEIYGRVGWFPANYVEEDYS [S18A]: the abundance fitness turned out to be 0.064 ± 0.08.

For KYFGTAKARYDFCARDRVELSLKEGDIIKILNKKGQQGWWRGEIYGRVGWFPANYVEEDYS [S18V], the abundance fitness is -0.599 ± 0.11.

Consider KYFGTAKARYDFCARDRHELSLKEGDIIKILNKKGQQGWWRGEIYGRVGWFPANYVEEDYS [S18H], for which the abundance fitness is -0.096 ± 0.21.

As to KYFGTAKARYDFCARDRMELSLKEGDIIKILNKKGQQGWWRGEIYGRVGWFPANYVEEDYS [S18M], the abundance fitness is -0.271 ± 0.091.

Consider KYFGTAKARYDFCARDREELSLKEGDIIKILNKKGQQGWWRGEIYGRVGWFPANYVEEDYS [S18E], for which the abundance fitness was -0.277 ± 0.12.

KYFGTAKARYDFCARDRCELSLKEGDIIKILNKKGQQGWWRGEIYGRVGWFPANYVEEDYS [S18C]: the abundance fitness was -0.364 ± 0.13.

On to KYFGTAKARYDFCARDRNELSLKEGDIIKILNKKGQQGWWRGEIYGRVGWFPANYVEEDYS [S18N], for which the abundance fitness worked out at 0.024 ± 0.16.

KYFGTAKARYDFCARDRPELSLKEGDIIKILNKKGQQGWWRGEIYGRVGWFPANYVEEDYS [S18P]: the abundance fitness was -0.794 ± 0.23.

KYFGTAKARYDFCARDRYELSLKEGDIIKILNKKGQQGWWRGEIYGRVGWFPANYVEEDYS [S18Y]: the abundance fitness was -0.158 ± 0.14.

Take KYFGTAKARYDFCARDRSERSLKEGDIIKILNKKGQQGWWRGEIYGRVGWFPANYVEEDYS [L20R]: the abundance fitness was -0.883 ± 0.15.

On to KYFGTAKARYDFCARDRSESSLKEGDIIKILNKKGQQGWWRGEIYGRVGWFPANYVEEDYS [L20S], for which the abundance fitness was -0.825 ± 0.13.

As to KYFGTAKARYDFCARDRSEASLKEGDIIKILNKKGQQGWWRGEIYGRVGWFPANYVEEDYS [L20A], the abundance fitness was -0.768 ± 0.19.

Consider KYFGTAKARYDFCARDRSETSLKEGDIIKILNKKGQQGWWRGEIYGRVGWFPANYVEEDYS [L20T], for which the abundance fitness is -0.642 ± 0.19.

Take KYFGTAKARYDFCARDRSEFSLKEGDIIKILNKKGQQGWWRGEIYGRVGWFPANYVEEDYS [L20F]: the abundance fitness is -0.937 ± 0.31.

Turning to KYFGTAKARYDFCARDRSEKSLKEGDIIKILNKKGQQGWWRGEIYGRVGWFPANYVEEDYS [L20K], the abundance fitness is -0.673 ± 0.24.

For KYFGTAKARYDFCARDRSEESLKEGDIIKILNKKGQQGWWRGEIYGRVGWFPANYVEEDYS [L20E], the abundance fitness was -0.852 ± 0.46.

For KYFGTAKARYDFCARDRSENSLKEGDIIKILNKKGQQGWWRGEIYGRVGWFPANYVEEDYS [L20N], the abundance fitness was -0.691 ± 0.35.

On to KYFGTAKARYDFCARDRSEMSLKEGDIIKILNKKGQQGWWRGEIYGRVGWFPANYVEEDYS [L20M], for which the abundance fitness is -0.756 ± 0.19.

KYFGTAKARYDFCARDRSEGSLKEGDIIKILNKKGQQGWWRGEIYGRVGWFPANYVEEDYS [L20G]: the abundance fitness is -0.927 ± 0.18.

Regarding KYFGTAKARYDFCARDRSEVSLKEGDIIKILNKKGQQGWWRGEIYGRVGWFPANYVEEDYS [L20V], the abundance fitness was -0.577 ± 0.1.

As to KYFGTAKARYDFCARDRSEISLKEGDIIKILNKKGQQGWWRGEIYGRVGWFPANYVEEDYS [L20I], the abundance fitness is -0.342 ± 0.21.

On to KYFGTAKARYDFCARDRSEYSLKEGDIIKILNKKGQQGWWRGEIYGRVGWFPANYVEEDYS [L20Y], for which the abundance fitness was -0.64 ± 0.25.

Turning to KYFGTAKARYDFCARDRSEQSLKEGDIIKILNKKGQQGWWRGEIYGRVGWFPANYVEEDYS [L20Q], the abundance fitness is -1.05 ± 0.39.

For KYFGTAKARYDFCARDRSECSLKEGDIIKILNKKGQQGWWRGEIYGRVGWFPANYVEEDYS [L20C], the abundance fitness is -0.966 ± 0.45.

Regarding KYFGTAKARYDFCARDRSEWSLKEGDIIKILNKKGQQGWWRGEIYGRVGWFPANYVEEDYS [L20W], the abundance fitness is -0.919 ± 0.24.

Consider KYFGTAKARYDFCARDRSELCLKEGDIIKILNKKGQQGWWRGEIYGRVGWFPANYVEEDYS [S21C], for which the abundance fitness was -0.445 ± 0.13.

For the variant KYFGTAKARYDFCARDRSELALKEGDIIKILNKKGQQGWWRGEIYGRVGWFPANYVEEDYS [S21A], the abundance fitness is -0.26 ± 0.077.

Turning to KYFGTAKARYDFCARHRSELSLKEGDIIKILNKKGQQGWWRGEIYGRVGWFPANYVEEDYS [D16H], the abundance fitness turned out to be 0.022 ± 0.11.

As to KYFGTAKARYDFCARERSELSLKEGDIIKILNKKGQQGWWRGEIYGRVGWFPANYVEEDYS [D16E], the abundance fitness was -0.225 ± 0.11.

Regarding KYFGTAKARYDFCARQRSELSLKEGDIIKILNKKGQQGWWRGEIYGRVGWFPANYVEEDYS [D16Q], the abundance fitness is -0.108 ± 0.11.

Turning to KYFGTAKARYDFCARGRSELSLKEGDIIKILNKKGQQGWWRGEIYGRVGWFPANYVEEDYS [D16G], the abundance fitness is -0.11 ± 0.071.

As for KYFGTAKARYDFCARFRSELSLKEGDIIKILNKKGQQGWWRGEIYGRVGWFPANYVEEDYS [D16F], the abundance fitness was -0.618 ± 0.17.

Consider KYFGTAKARYDFCARMRSELSLKEGDIIKILNKKGQQGWWRGEIYGRVGWFPANYVEEDYS [D16M], for which the abundance fitness is -0.499 ± 0.2.

Take KYFGTAKARYDFCARTRSELSLKEGDIIKILNKKGQQGWWRGEIYGRVGWFPANYVEEDYS [D16T]: the abundance fitness is -0.135 ± 0.091.

In the case of KYFGTAKARYDFCARKRSELSLKEGDIIKILNKKGQQGWWRGEIYGRVGWFPANYVEEDYS [D16K], the abundance fitness is -0.174 ± 0.12.

For KYFGTAKARYDFCARPRSELSLKEGDIIKILNKKGQQGWWRGEIYGRVGWFPANYVEEDYS [D16P], the abundance fitness is -0.839 ± 0.22.

Take KYFGTAKARYDFCARWRSELSLKEGDIIKILNKKGQQGWWRGEIYGRVGWFPANYVEEDYS [D16W]: the abundance fitness is -0.617 ± 0.081.

On to KYFGTAKARYDFCARYRSELSLKEGDIIKILNKKGQQGWWRGEIYGRVGWFPANYVEEDYS [D16Y], for which the abundance fitness is -0.445 ± 0.13.

On to KYFGTAKARYDFCARRRSELSLKEGDIIKILNKKGQQGWWRGEIYGRVGWFPANYVEEDYS [D16R], for which the abundance fitness was -0.112 ± 0.064.

For KYFGTAKARYDFCARSRSELSLKEGDIIKILNKKGQQGWWRGEIYGRVGWFPANYVEEDYS [D16S], the abundance fitness came out at 0 ± 0.069.

As for KYFGTAKARYDFCARVRSELSLKEGDIIKILNKKGQQGWWRGEIYGRVGWFPANYVEEDYS [D16V], the abundance fitness was -0.308 ± 0.071.

For KYFGTAKARYDFCARLRSELSLKEGDIIKILNKKGQQGWWRGEIYGRVGWFPANYVEEDYS [D16L], the abundance fitness was -0.418 ± 0.072.
